The target of the data set is T1, GluA2Qflip (Rattus norvegicus, UniProt P19491).
T1 construct: expressed in transfected cells; host or cells: HEK-293S
Briefly: Whole-cell current recording, GluA2Qflip in HEK-293 cells. It counts as cell-based. The text has this:
The original cDNAs in pBlueScript encoding rat GluA1, 2 and 3 AMPA receptors and GluK2 kainate receptor were kindly provided by Steve Heinemann. The GluA4 DNA plasmid was kindly provided by Peter Seeburg. The GluK1 plasmid was kindly provided by Geoffrey Swanson. The cDNAs of all three NMDA receptor subunits were gifts from John Woodward. All DNA plasmids were propagated using Escherichia coli host (DH5α) and purified using QIAGEN DNA purification kits.
All of the receptors were transiently expressed in HEK-293S cell. HEK-293S cells were maintained in Dulbecco's modified Eagle's medium (DMEM) supplemented with 10% fetal bovine serum and 1% penicillin in a 37° C., 5% CO2, humidified incubator. Receptors were transiently transfected by using calcium phosphate or lipofectamine 2000 (Invitrogen). The DNA plasmids encoding green fluorescent protein (GFP) and T-antigen (TAg) were cotransfected in HEK-293 S cells. GFP was used as a transfection marker for cell recording, and TAg was cotransfected to potentiate the receptor expression at the single-cell level^6. Transfected cells were allowed to grow for 48 hour before they were used for recording.
The procedure for whole-cell current recording to assay the inhibitory property of an RNA aptamer is known to those of skill in the art and has been previously described^7. […] The extracellular buffer composition is described above (see “Receptor Preparation”). For recording of the NMDA channels, the intracellualr solution contained (in mM) 140 CsCl, 1 MgCl2, 0.1 EGTA, and 10 HEPES (pH 7.2 adjusted by […]), while the extracellular solution contained (in mM) 135 NaCl, 5.4 KCl, 1.8 CaCl2, 10 glucose and 5 HEPES (pH 7.2 adjusted by NaOH). In the extracellular buffer, 2 μM of glycine was added (glycine was the co-agonist of NMDA receptor)^2. All reagents including aptamer were dissolved in the corresponding extracellular buffer and used. […] The whole-cell current was recorded using an Axopatch-200B amplifier at a cutoff frequency of 2-20 kHz by a built-in, eight-pole Bessel filter and digitized at 5-50 kHz sampling frequency using a Digidata 1322A from Axon Instruments (Molecular Devices, Sunnyvale, Calif.). The pClamp 8 software (Molecular Devices) was used for data acquisition. All whole-cell recordings were at −60 mV and 22° C.
To deliver AG56 to a HEK-293 cell, a “Ψ”-shaped flow device was used. […] In all experiments reported in this study, a 6-second preincubation flow protocol was used for full aptamer preincubation. […] The corrected current amplitude was used for data analysis.
Determination of KI,app by the ratio of the current amplitude in the absence and presence of inhibitor or A/A(I)—see FIG. 5 in the text. Equ. 10a and 10b were derived based on one inhibitor binding to the receptor. KI, app is the apparent inhibition constant for the inhibitor; other terms have been defined previously.
Under this condition, the inhibition constant for the closed-channel conformation was determined from the ratio of the amplitude according to equ. 10a and 10b. Likewise, at a saturating ligand concentration (i.e., L>>K1), the majority of the receptors were in the open-channel state. Consequently, the inhibition constant associated with the open-channel conformation was measured. The basis of using the two ligand concentrations that corresponded to ˜4% and ˜96% fraction of the open-channel receptor form^7 to determine the corresponding inhibition constant was a putative difference in inhibition constant between the closed-channel and the open-channel conformation. At those low and high ligand concentrations^7, the apparent inhibition constants obtained were considered pertinent to the closed-channel and the open-channel conformations, respectively. Examples of using the current amplitude to determine the inhibition constant for an inhibitor include our previous study of two 2,3-benzodiazepine derivatives with the GluA2Qflip AMPA receptor^15.

T1 sequence (P19491 22-883 isoform P19491-2): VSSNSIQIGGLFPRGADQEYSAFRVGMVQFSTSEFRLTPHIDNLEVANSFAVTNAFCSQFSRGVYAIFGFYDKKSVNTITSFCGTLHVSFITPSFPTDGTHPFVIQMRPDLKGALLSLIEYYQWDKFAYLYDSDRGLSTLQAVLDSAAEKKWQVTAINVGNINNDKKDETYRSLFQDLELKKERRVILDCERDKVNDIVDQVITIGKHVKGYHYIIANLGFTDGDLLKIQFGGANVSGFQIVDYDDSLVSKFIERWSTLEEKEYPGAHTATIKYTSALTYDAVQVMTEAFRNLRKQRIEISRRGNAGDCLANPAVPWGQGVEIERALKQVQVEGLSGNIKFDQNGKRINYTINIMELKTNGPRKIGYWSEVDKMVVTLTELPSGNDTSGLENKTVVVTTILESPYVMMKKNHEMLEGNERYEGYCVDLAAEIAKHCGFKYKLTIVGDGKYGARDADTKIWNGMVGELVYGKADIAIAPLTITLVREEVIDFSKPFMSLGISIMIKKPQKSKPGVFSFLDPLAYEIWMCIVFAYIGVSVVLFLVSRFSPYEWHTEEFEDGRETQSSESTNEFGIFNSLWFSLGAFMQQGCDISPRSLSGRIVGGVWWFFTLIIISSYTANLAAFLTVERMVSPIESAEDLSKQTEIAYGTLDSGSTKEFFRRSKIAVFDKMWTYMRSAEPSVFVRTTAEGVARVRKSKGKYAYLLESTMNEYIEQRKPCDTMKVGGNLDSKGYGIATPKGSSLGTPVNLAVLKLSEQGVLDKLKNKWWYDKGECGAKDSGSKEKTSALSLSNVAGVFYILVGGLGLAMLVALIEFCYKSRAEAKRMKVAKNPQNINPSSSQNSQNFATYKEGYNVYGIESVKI

In the case of “45 nt RNA: truncated AG1407 version with the bulge at the U50 position removed (GGUUCAACUGCCAUCUAGGCAGAUUGUGAAGCGUAGGCUCGAGCC; listed as RNA, chemistry not given here)”, the “inhibitory function of shorter versions of AG1407, based on A/A(I)” value (GluA2Qflip) was “total loss of inhibitory function”.
In the case of “46 nt RNA: truncated AG1407 version with three-way junction shortened by deleting UUGUGA sequence (GGAGAAUCAACUGCCAUCUAGGCAGAAGCGUAGGCUCGAUUUGUCC; listed as RNA, chemistry not given here)”, the “inhibitory function of shorter versions of AG1407, based on A/A(I)” value (GluA2Qflip) is listed as “total loss of inhibitory function”.
The same measure, in the same setting: the result for “48 nt RNA: truncated AG1407 version with base-paired stem in first stem-loop region truncated (GGAGAAUCAACUCAUCUAGAGAUUGUGAAGCGUAGGCUCGAUUUGUCC; listed as RNA, chemistry not given here)” reads “total loss of inhibitory function”.

B1: AG1407: full length 100-nt RNA aptamer, most enriched SELEX sequence against GluA2Qflip (nucleic acid)
chain: GGGAGAAUUCAACUGCCAUCUAGGCAGAUUGUGAAGCGUAGGCUCGAGUUUGUCCCGCGAGCCAAAGAUUCCAGAAGUACUACAAGCUUCUGGACUCGGU
modifications: RNA, backbone not given here
As for B1, the “A/A(I) value” runs as follows: (0.5 μM AG1407, 0.5 mM glutamate) “significantly larger than 1.0”; (0.5 μM AG1407, 3 mM glutamate) “significantly larger than 1.0”. In addition, for the setting “500 nM aptamer, 3 mM glutamate”, the “A/A(I), ratio of current amplitudes in absence and presence of aptamer” value is recorded as “one of the most potent inhibitors”. Moreover, the “inhibition of the open-channel conformation” value (GluA2Qflip, high glutamate concentration) is on record as “inhibited the open-channel”.

The values above are taken from patent publication US8748407B2 (The Research Foundation for the State University of New York, priority 2010, dated 2014).
